B1: AUP1-FLAG: full-length epitope-tagged AUP1 (protein, UniProt Q9Y679 1-410, looked up)
chain: MELPSGPGPERLFDSHRLPGDCFLLLVLLLYAPVGFCLLVLRLFLGIHVFLVSCALPDSVLRRFVVRTMCAVLGLVARQEDSGLRDHSVRVLISNHVTPFDHNIVNLLTTCSTPLLNSPPSFVCWSRGFMEMNGRGELVESLKRFCASTRLPPTPLLLFPEEEATNGREGLLRFSSWPFSIQDVVQPLTLQVQRPLVSVTVSDASWVSELLWSLFVPFTVYQVRWLRPVHRQLGEANEEFALRVQQLVAKELGQTGTRLTPADKAEHMKRQRHPRLRPQSAQSSFPPSPGPSPDVQLATLAQRVKEVLPHVPLGVIQRDLAKTGCVDLTITNLLEGAVAFMPEDITKGTQSLPTASASKFPSSGPVTPQPTALTFAKSSWARQESLQERKQALYEYARRRFTERRAQEAD
modifications: full-length FLAG tag
B2: 5E: AUP1 point mutant; GST-AUP1 aa 292 to 410 in vitro, full-length AUP1-FLAG in cells (protein, UniProt Q9Y679 1-410, looked up, variant R382E Q383E K390E R398E R400E)
Lipid droplet-regulating VLDL …: MELPSGPGPERLFDSHRLPGDCFLLLVLLLYAPVGFCLLVLRLFLGIHVFLVSCALPDSVLRRFVVRTMCAVLGLVARQEDSGLRDHSVRVLISNHVTPFDHNIVNLLTTCSTPLLNSPPSFVCWSRGFMEMNGRGELVESLKRFCASTRLPPTPLLLFPEEEATNGREGLLRFSSWPFSIQDVVQPLTLQVQRPLVSVTVSDASWVSELLWSLFVPFTVYQVRWLRPVHRQLGEANEEFALRVQQLVAKELGQTGTRLTPADKAEHMKRQRHPRLRPQSAQSSFPPSPGPSPDVQLATLAQRVKEVLPHVPLGVIQRDLAKTGCVDLTITNLLEGAVAFMPEDITKGTQSLPTASASKFPSSGPVTPQPTALTFAKSSWAEEESLQEREQALYEYAEREFTERRAQEAD
modifications: GST or FLAG tag
notes: AUP1 point mutant; GST-AUP1 aa 292 to 410 in vitro, full-length AUP1-FLAG in cells
B3: 2A: AUP1 point mutant R382A/Q383A (GST-AUP1 aa 292 to 410) (protein, UniProt Q9Y679 1-410, looked up, variant R382A Q383A)
Lipid droplet-regulating VLDL …: MELPSGPGPERLFDSHRLPGDCFLLLVLLLYAPVGFCLLVLRLFLGIHVFLVSCALPDSVLRRFVVRTMCAVLGLVARQEDSGLRDHSVRVLISNHVTPFDHNIVNLLTTCSTPLLNSPPSFVCWSRGFMEMNGRGELVESLKRFCASTRLPPTPLLLFPEEEATNGREGLLRFSSWPFSIQDVVQPLTLQVQRPLVSVTVSDASWVSELLWSLFVPFTVYQVRWLRPVHRQLGEANEEFALRVQQLVAKELGQTGTRLTPADKAEHMKRQRHPRLRPQSAQSSFPPSPGPSPDVQLATLAQRVKEVLPHVPLGVIQRDLAKTGCVDLTITNLLEGAVAFMPEDITKGTQSLPTASASKFPSSGPVTPQPTALTFAKSSWAAAESLQERKQALYEYARRRFTERRAQEAD
modifications: GST fusion aa 292-410
B4: 2E: AUP1 point mutant; GST-AUP1 aa 292 to 410 in vitro, full-length AUP1-FLAG in cells (protein, UniProt Q9Y679 1-410, looked up, variant R382E Q383E)
Lipid droplet-regulating VLDL …: MELPSGPGPERLFDSHRLPGDCFLLLVLLLYAPVGFCLLVLRLFLGIHVFLVSCALPDSVLRRFVVRTMCAVLGLVARQEDSGLRDHSVRVLISNHVTPFDHNIVNLLTTCSTPLLNSPPSFVCWSRGFMEMNGRGELVESLKRFCASTRLPPTPLLLFPEEEATNGREGLLRFSSWPFSIQDVVQPLTLQVQRPLVSVTVSDASWVSELLWSLFVPFTVYQVRWLRPVHRQLGEANEEFALRVQQLVAKELGQTGTRLTPADKAEHMKRQRHPRLRPQSAQSSFPPSPGPSPDVQLATLAQRVKEVLPHVPLGVIQRDLAKTGCVDLTITNLLEGAVAFMPEDITKGTQSLPTASASKFPSSGPVTPQPTALTFAKSSWAEEESLQERKQALYEYARRRFTERRAQEAD
modifications: GST or FLAG tag
notes: as for B2
B5: A397D: AUP1 point mutant; GST-AUP1 aa 292 to 410 in vitro, full-length AUP1-FLAG in cells (protein)
chain: SPDVQLATLAQRVKEVLPHVPLGVIQRDLAKTGCVDLTITNLLEGAVAFMPEDITKGTQSLPTASASKFPSSGPVTPQPTALTFAKSSWARQESLQERKQALYEYDRRRFTERRAQEAD
modifications: left off: GST, end not stated, kept
notes: as for B2
B6: Y394D: AUP1 point mutant (GST-AUP1 aa 292 to 410) (protein)
chain: SPDVQLATLAQRVKEVLPHVPLGVIQRDLAKTGCVDLTITNLLEGAVAFMPEDITKGTQSLPTASASKFPSSGPVTPQPTALTFAKSSWARQESLQERKQALDEYARRRFTERRAQEAD
modifications: left off: GST, end not stated, kept

Tests used:
[1] = test system: NHK (Null Hong Kong variant of alpha1-antitrypsin); assay: CHX chase: NHK degradation in HT1080 AUP1 KO cells; assay type: cell-based, human; details: for restoration of NHK degradation: full-length or deleted AUP1-FLAG re-expressed in HT1080 AUP1 KO cells, CHX 50 μg/mL
Experimental: Fig 1 The G2BR of AUP1 is required for ERAD of NHK. (A) HT1080 or cells in which HRD1 was knocked out by CRISPR/Cas-9 (HRD1 KO) were transfected with plasmid encoding carboxyl-terminally HA-tagged NHK. Cells were treated with CHX for the indicated times to inhibit protein synthesis and NHK-HA degradation monitored by western blot. GFP and HSP60 serve as transfection efficiency and gel loading controls, respectively. (B) HT1080 or cells in which either AUP1 or gp78 was knocked out (AUP1 KO or gp78 KO) were transfected with NHK-HA and their degradation assessed. (C) AUP1 KO cells were transfected with NHK-HA and empty vector or plasmid encoding carboxyl-terminally FLAG-tagged AUP1 and NHK degradation assessed. (D) Indicated cells were transfected with plasmid encoding carboxyl-terminally MYC-tagged INSIG-1 and assessed for INSIG-1 degradation. (E) Schematic representation of AUP1 in the ER membrane and deletion mutants used in subsequent experiments. Amino acid residues are numbered spanning each domain. (F) AUP1 KO cells were transfected with NHK-HA and plasmids encoding the indicated FLAG-tagged AUP1 WT or deletion mutants and assessed for NHK degradation. (G) HEK293 (Parental) or HEK293 AUP1 KO cells were assessed for degradation of NHK-HA. (H) HEK293 AUP1 KO cells were assessed for NHK-HA degradation as in (F). Markers represent apparent molecular weight in kDa. The data underlying this figure can be found in S1 Data. aa, amino acid; AUP1, ancient ubiquitous protein 1; CHX, cycloheximide; ER, endoplasmic reticulum; ERAD, endoplasmic reticulum–associated degradation; G2BR, UBE2G2 Binding Region; KO, knockout; NHK, Null Hong Kong; WT, wild type.
(§1) Fig 6 Disruption of UBE2G2:G2BR^AUP1 interaction abrogates AUP1 function in cells. (A) GST or indicated GST-AUP1 fusions (aa 292 to 410, expression shown in Coomassie-stained gel) were immobilized on glutathione beads and binding to ^35S-UBE2G2 was assessed as in Fig 3A. Mutations include 2A (R382A/Q383A), 2E (R382E/Q383E), and 5E (R382E/Q383E/K390E/R398E/R400E). (B) AUP1 KO cells were transfected with NHK-HA and forms of full-length AUP1-FLAG with the indicated point mutations from (A) and NHK degradation assessed by CHX chase. (C) Binding assay performed as in (A) with AUP1 mutants predicted to disrupt hydrophobic interactions with UBE2G2. (D) Cellular assay performed as in (B) with AUP1-FLAG mutants that disrupt interactions with UBE2G2 in vitro in (C). The data underlying this figure can be found in S1 Data. aa, amino acid; AUP1, ancient ubiquitous protein 1; CHX, cycloheximide; G2BR, UBE2G2 Binding Region; KO, knockout; WT, wild type.
Fig 8 Recruitment of UBE2G2 to the ER membrane and activation by G2BR^AUP1 is required for ERAD. (A) HT1080 or AUP1 KO cells were transfected with NHK-HA and either empty vector or MYC-UBE2G2 and NHK turnover assessed by CHX chase. (B) AUP1 KO cells were transfected with NHK-HA and GFP fusions of either a scrambled G2BR sequence (SCR) or G2BR^AUP1 and NHK turnover and levels of endogenous UBE2G2 assessed. Luciferase and β-actin served as transfection efficiency and gel loading controls, respectively. (C) AUP1 KO cells were transfected with NHK-HA, MYC-UBE2G2, and either GFP-SCR or GFP-G2BR^AUP1 and NHK turnover assessed. (D) Membrane fractionation was performed on HT1080 or AUP1 KO cells transfected with either empty vector or AUP1-FLAG and localization of UBE2G2 assessed by western blotting. Localization of β-actin (cytosol) and Calnexin (ER membrane) were used as controls for cytosolic (C) and membrane (M) fractions, respectively. (E) Membrane fractionation of AUP1 KO cells transfected with either MYC-UBE2G2 or TM-UBE2G2. (F) HT1080 cells were transfected with TM-UBE2G2 and its localization assessed by confocal microscopy. Images shown are from an optical section after deconvolution. HA-tagged UBE2J2, an ER-localized E2, serves as an ER marker. […]

UBE2G2 = target: T1, UBE2G2 (Homo sapiens, UniProt P60604); assay: GST pulldown of in vitro translated 35S-UBE2G2; assay type: binding; details: GST-AUP1 aa 292 to 410 on glutathione beads, ~3 pmol GST fusion, ~0.2 pmol E2, overnight 4°C, pH 7.4
T1 construct: made in house
T1 sequence (P60604 1-165): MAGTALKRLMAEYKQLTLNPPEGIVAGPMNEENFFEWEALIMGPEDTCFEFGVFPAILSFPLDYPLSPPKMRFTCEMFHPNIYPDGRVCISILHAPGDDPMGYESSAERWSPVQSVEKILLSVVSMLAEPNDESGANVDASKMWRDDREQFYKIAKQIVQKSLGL
Experimental: Fig 3 The AUP1–UBE2G2 interaction is required for ERAD. (A) Equimolar amounts of GST-AUP1 (aa 292 to 410) or GST were immobilized on glutathione beads and binding to the indicated in vitro translated ^35S-labeled E2s was assessed. Left panel is 5% of input used for binding. E2s are referred to by their unique alpha-numeric designation (e.g., UBE2G1 and UBE2J1). (B) HT1080 or UBE2G2 KO cells were transfected with INSIG-1-MYC and degradation assessed by CHX chase. […] (D) Cells were transfected with NHK-MYC and HA-ubiquitin and ubiquitination of NHK assessed following proteasome inhibition and IP (right panel). Left panel is 10% of total cell lysate used for IP, indicating no discernable change in total ubiquitination. (E) Levels of endogenous HRD1 were monitored by CHX chase in the indicated cell types. (F) Ubiquitination of endogenous HRD1 was assessed following IP with HRD1 antiserum. Arrow in upper panel indicates migration of unmodified HRD1. Control immunoprecipitates using rabbit serum are shown for comparison. The data underlying this figure can be found in S1 Data. aa, amino acid; AUP1, ancient ubiquitous protein 1; CHX, cycloheximide; ERAD, endoplasmic reticulum–associated degradation; IP, immunoprecipitation; KO, knockout; WT, wild type.
as §1
In vitro translated ^35S methionine-labeled E2s were generated using the E. coli T7-S30 Extract System (Promega) and excess ^35S methionine was removed by desalting twice with Zeba Spin Desalting Columns (Thermo Scientific). GST fusion proteins were quantified by Coomassie blue staining. Moreover, 0.1 μg of GST fusion protein (approximately 3 pmol) was prebound to GS 4B (GE Healthcare) and then incubated with approximately 10^5 cpm of ^35S methionine-labeled E2 (approximately 0.2 pmol) in 200 μl Binding Buffer (25 mM Tris-HCl, pH 7.4, 50 mM NaCl, 5 mM DTT, 0.5% IGEPAL CA-630) overnight at 4°C. Beads were extensively washed in Binding Buffer, resolved on Bis/Tris polyacrylamide gels under reducing conditions, dried and visualized on a Typhoon FLA 7000 (GE Healthcare). Binding was quantified using ImageQuant Software.

Molecule	restoration of NHK degradation [1]	binding to UBE2G2 (UBE2G2)	NHK degradation, doubled amount of plasmid ([1]; repeat transfection with doubled amount of mutant, reviewer response)
B1	restored NHK degradation	–	–
B2	failed to restore NHK degradation	loss of detectable UBE2G2 binding	–
B3	–	unable to disrupt UBE2G2 binding	–
B4	restored degradation of NHK in the AUP1 KO cells, to a degree comparable to WT AUP1	failed to disrupt UBE2G2 binding	–
B5	failed to restore NHK degradation	Binding was similarly lost	unable to convince ourselves that there is any significant degradation
B6	–	reduced binding	–

— paper PMC8699718, “A structurally conserved site in AUP1 binds the E2 enzyme UBE2G2 and is essential for ER-associated degradation” (PLoS Biology, 2021)
